Test results reported in patent publication US20080166762A1.

Biological target: IL-1 receptors on MCF-7 cells
Experiment: cell-based or functional assay

Substance “Interleukin 1 receptor antagonist (IL-1Ra) secreted by Pichia pastoris x-33/pGAPZαA/IL-1Ra clone 7, partially purified (from UniProt P18510 26-177) (ligand)” has a proliferation of MCF-7 cells (BrdU) in the presence of 50 ng IL-1beta of 40 ng.
With “Recombinant human IL-1beta (from UniProt P01584 117-269) (ligand)” the inhibition of proliferation of MCF-7 cells (BrdU) was 50 ng.
In the case of “recombinant IL-1Ra standard from E. coli (Prospectany) (from UniProt P18510 26-177) (ligand)”, the proliferation of MCF-7 cells (BrdU) in the presence of 50 ng IL-1beta was 20 ng.
